For this experiment, the target named is T1, human GC-B (Homo sapiens, UniProt P20594).
T1 construct: expressed in transfected cells; host or cells: HEK293, transient, pCDNA1.1 (CMV promoter)
T1 sequence (P20594 23-1047): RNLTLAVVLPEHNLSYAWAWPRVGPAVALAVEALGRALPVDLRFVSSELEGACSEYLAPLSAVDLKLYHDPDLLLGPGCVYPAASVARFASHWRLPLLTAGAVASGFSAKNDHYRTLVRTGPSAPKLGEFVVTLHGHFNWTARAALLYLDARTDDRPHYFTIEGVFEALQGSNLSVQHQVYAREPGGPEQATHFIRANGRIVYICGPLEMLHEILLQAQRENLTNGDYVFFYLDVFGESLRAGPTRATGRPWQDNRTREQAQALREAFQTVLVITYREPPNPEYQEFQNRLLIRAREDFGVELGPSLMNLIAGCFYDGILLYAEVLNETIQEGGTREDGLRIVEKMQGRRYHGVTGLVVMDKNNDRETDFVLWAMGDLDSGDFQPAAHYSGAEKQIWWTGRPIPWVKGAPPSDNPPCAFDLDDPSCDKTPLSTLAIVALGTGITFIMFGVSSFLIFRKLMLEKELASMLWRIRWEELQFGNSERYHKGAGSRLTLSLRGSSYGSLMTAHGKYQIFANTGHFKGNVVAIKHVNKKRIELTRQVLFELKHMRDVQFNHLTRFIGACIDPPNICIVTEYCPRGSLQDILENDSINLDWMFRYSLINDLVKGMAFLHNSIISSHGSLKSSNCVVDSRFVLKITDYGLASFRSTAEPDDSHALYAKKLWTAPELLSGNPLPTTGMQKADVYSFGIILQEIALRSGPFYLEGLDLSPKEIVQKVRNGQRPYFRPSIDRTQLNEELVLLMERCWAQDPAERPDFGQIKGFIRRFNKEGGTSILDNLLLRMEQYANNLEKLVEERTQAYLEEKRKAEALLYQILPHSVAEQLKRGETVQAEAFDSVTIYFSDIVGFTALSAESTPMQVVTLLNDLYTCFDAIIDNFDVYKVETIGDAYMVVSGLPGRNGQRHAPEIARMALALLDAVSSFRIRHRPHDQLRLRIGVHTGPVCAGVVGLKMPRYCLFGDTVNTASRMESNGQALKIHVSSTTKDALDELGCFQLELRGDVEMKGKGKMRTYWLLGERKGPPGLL
The experiment is described as follows: Intracellular cGMP in GC-B transfected HEK293 cells. It is filed as cell-based. The conditions noted are these: 10 nM peptide, 15 min.

B1: rhOstn[27-133]: N-terminal 6 histidine-tagged recombinant human Ostn amino acids 27-133 produced in E.coli, SEQ ID NO: 57 (protein)
chain: SVDVTTTEAFDSGVIDVQSTPTVREEKSATDLTAKLLLLDELVSLENDVIETKKKRSFSGFGSPLDRLSAGSVDHKGKQRKVVDHPKRRFGIPMDRIGRNRLSNSRG
modifications: N-terminal His6 tag; recombinant mature osteocrin
B1: the “intracellular cGMP response via GC-B” value is “failed to activate”.

(Values after patent US7470668B2, “Method of use of specific natriuretic peptide receptor c ligands, transgenic non-human mammals expressing specific natriuretic peptide receptor c antagonists and cells thereof” (Enobia Pharma Inc., priority 2005, dated 2008).)
